assay: soluble on expression in E. coli; label from the status in PepcDB or PDB records

Soluble on expression in E. coli, soluble:
MRGSHHHHHHTDPALRAKKIAIVGAGPTGIYTLFSLLQQQTPLSISIFEQADEAGVGMPYSDEENSKMMLANIASIEIPPIYCTYLEWLQKQEDSHLQRYGVKKETLHDRQFLPRILLGEYFRDQFLRLVDQARQQKFAVAVYESCQVTDLQITNAGVMLATNQDLPSETFDLAVIATGHVWPDEEEATRTYFPSPWSGLMEAKVDACNVGIMGTSLSGLDAAMAVAIQHGSFIEDDKQHVVFHRDNASEKLNITLLSRTGILPEADFYCPIPYEPLHIVTDQALNAEIQKGEEGLLDRVFRLIVEEIKFADPDWSQRIALESLNVDSFAQAWFAERKQRDPFDWAEKNLQEVERNKREKHTVPWRYVILRLHEAVQEIVPHLNEHDHKRFSKGLARVFIDNYAAIPSESIRRLLALREAGIIHILALGEDYKMEINESRTVLKTEDNSYSFDVFIDARGQRPLKVKDIPFPGLREQLQKTGDEIPDVGEDYTLQQPEDIRGRVAFGALPWLMHDQPFVQGLTACAEIGEAMARAVVKPASRARRRLSFDGLCGR
MPGQQATKHESLLDQLSLKGKVVVVTGASGPKGMGIEAARGCAEMGAAVAITYASRAQGAEENVKELEKTYGIKAKAYKCQVDSYESCEKLVKDVVADFGQIDAFIANAGATADSGILDGSVEAWNHVVQVDLNGTFHCAKAVGHHFKERGTGSLVITASMSGHIANFPQEQTSYNVAKAGCIHMARSLANEWRDFARVNSISPGYIDTGLSDFVPKETQQLWHSMIPMGRDGLAKELKGAYVYFASDASTYTTGADLLIDGGYTTR
SHSSSRASFTTRGDIRRQVEGFSASGERNKDTVVDLSTFFAERGYSNNQAPTKYWEEKLVTIGNVVVPKWVPVKERNSSNKQKEGEDEVFIGFEAIYYPEQPPERQPITLYQEENKVEEEEQSRE
MGEETINSTQNKTRTKTTRPKAVYLWTVSDVLKWYRRHCGEYTQYEQLFAQHDITGRALLRITDSSLQRMGVTDNRDREAIWREIVKQRLKTDIMEIRDMERLNIY
MKTRITELLKIDYPIFQGGMAWVADGDLAGAVSKAGGLGIIGGGNAPKEVVKANIDKIKSLTDKPFGVNIMLLSPFVEDIVDLVIEEGVKVVTTGAGNPSKYMERFHEAGIIVIPVVPSVALAKRMEKIGADAVIAEGMEAGGHIGKLTTMTLVRQVATAISIPVIAAGGIADGEGAAAGFMLGAEAVQVGTRFVVAKESNAHPNYKEKILKARDIDTTISAQHFGHAVRAIKNQLTRDFELAEKDAFKQEDPDLEIFEQMGAGALAKAVVHGDVDGGSVMAGQIAGLVSKEETAEEILKDLYYGAAKKIQEEASRWTGVVRNDLEHHHHHH
MSSLCLQRLQEERKKWRKDHPFGFYAKPVKKADGSMDLQKWEAGIPGKEGTNWAGGVYPITVEYPNEYPSKPPKVKFPAGFYHPNVYPSGTICLSILNEDQDWRPAITLKQIVLGVQDLLDSPNPNSPAQEPAWRSFSRNKAEYDKKVLLQAKQYSK

Soluble on expression in E. coli, not soluble:
MGHHHHHHSHMAVRRPGCFLCREEAADLSSLKSMLDQLGVPLYAVVKEHIRTEVKDFQPYFKGEIFLDEKKKFYGPQRRKMMFMGFIRLGVWYNFFRAWNGGFSGNLEGEGFILGGVFVVGSGKQGILLEHREKEFGDKVNLLSVLEAAKMIKPQTLASEKK
MGSDKIHHHHHHMAYLTIIKNGETIDHRKYGLKLLSFRKESLTHRTNFEEIGGRHGAIDTGTTFGERKLKATFLMQGVDHLDYQLMIDEVYALFACEDSIELIDSRQPGKVWTVKPSSTFEPDDLNPRSGKFEIEFTSPLPFASSYGSTLDPFTFGEEVWQIGQGLIPSDSLVYRHRTTRFSIFNAGNVEVDPCLEMPLNIVYKGASSNFSIKNKTTGQTISYNGTSKSTDSIKLEGLRHLKNGISIYGNTNRGYVSLKPGWNDFELTGTSGSFEITFDFFFFYK
MSPNCETPTSSLSTSLRFVPSLACIAEEEPKVIGIRKITVPGSSKPFQVQIPLYDLNIYAPEPPKQPLPDSYQRLLAEMDQYIGGHQNSEMYKEMAKNLRHKVAVEQAENNRLSKSNFTNRDWYWYAEQTRAFVDEPVINSTSKTQESNISECLEETSSSAKSTVMKDEDLFDLSADF
MGSDKIHHHHHHMSTTEIVKEAESRHDFALIANWIQPQSKVLDLGCGNGSLLSFLREKLGVKGYGVDKDDDNVLACIGHGVNVIQMDLEAGLAGFDSLSFDYVILSQTLQAMVNTEGVLREMLRVGKQGIITFPNFGYWRHRIQLMAGHMPVSDNIPHQWYNTPNLHLCTIDDFEALCDKMNIRITDRIVINEGNTVSFMPNLFGSLAIYRFEQAAWPVSY
MSIVSLAKQSGLSVSSISAYENNKRQPKIESLQKISKVLGVSSAYLNGMSEEKNILNVNSQSLKNNTIDIDVIGFLLNVRSTYPGKVPIFIQDVLAGAPIYIDDNGNKLDAKKRKLLITFLKTLLN
MNNISIPFEKLGNAKKVGIQLPDGLKRRAIEIAQLIEDRGYDVVISGETSFGACDIDLSILEVVDVLLHFAHTPILKDERVVYVPYFIEYNPKIDLKVDERRIALIATAQYVHKLPEVAEWLRGKGYEVEIGSPRGRVVYPGQVLGCNYSVLRGSNADAVVFIGDGLFHATGAAMYTKKKVYAYNPLSGELKEVDARNFEKKRYLEVSKCVGKSKAGILVSSKPGQRRLRLAEKLKKIGRENGLFCSIIYLNNVRAEELYNLPFDFYVNTACPRIAYDDGARFEKPVISPQEFELLLGLRESIAMDEIEF
MEKYMSLLTRIEEMMQSTSYQEGDRLPSIRQLSARYQVSKSTVIRALQELEKRHLIYSVPKSGYYIVKKSGKSKSGQPGPIDFATSAPDPDVFPYLDFQHCINKAIDTYKNDLFIYGTPKGLPSLIRVLRKLLATQQVFADERHIFITSGVQQALSLLCAMPFPNGKEKIAIEQPGYHLMVEQLETLGIPAIGVKRTEEGLDIAKVERLFQTESIKFFYTMPRFHNPLGCSLSERDKQELVRLAEAYDVYLVEDDYLGDLEENKKADPLYAYDLSSHVIYLKSFSKMMFPGLRVGAAVLPEALTDTFYAYKKLNDIDCSMISQAALEIYLKSGMYGRHKEKIRDSYKERSLRLHQAIRTHRQLGSGRFTFSSGQAPCMHTHLVLPQDLPASRVIHRLEKQGVLLEAIDRHYLSDYPKENLLKINISNVKTEDIERGVKLLMSHL
MLKFFAALLFAVATMAQAQDNTLHTDLPLDYLAQANVETPDRPLVIFIHGYGSNAADLFGLKEHLPAGFNYLSVQAPVELQADSYKWFTQKKGGTDYDGVTEDLKSSGKRLTDFITQATEKFRTQPGKVFLVGFSQGAMMSYEVALRQPTLVGGFAALSGRLLPVVKSEVNASDDLKALKVFIGHGVQDRQVAYASGPQAEATLKSLGLTPQFHGYEGLGHSINEAEVVDLANWLQQSSR
MGSDKIHHHHHHMENTIYLSSAYLAPVEYYTKLFACEKAYVEQYDNYVKQTYRNRCVIAAADGPLALTIPTEKSGTPKCLMKDVRISDHGNWRHIHWNALVAAYRNSPFFEYYADDFHVFYEKKYAFLWDYNQEICSLVCDLIDIHPHMEGTTEYCMEFVPGEVDFRETIHPKRDWREADADFCPKPYYQVFDAKYGFLPNLSIADLLFNMGPESLIVLRDSVKGINHKE
MGSDKIHHHHHHMSYDEAFKTLLISSNAKLNLELNHLVIKQDENIAKLFLKDINIIVLESLQISISSALFNAFAKYKIILLTCDETHSINGVFTPFLGHFQSAKIAKEQMNVSAQKKAILWQKIIKNKILNQAFILKKHNKIEQSNELINLAKKVSLNDSKNIEAVAAALYFKTLFGTSFSRDELCFENSALNYGYAIIRACIIRAVCISGLLPWLGIKHDNIYNSFALCDDLIEVFRASVDDCVLKLKGESEFLSKDDKRALIGNLQSKINFDGQNYPLNRAINHYVANFKNALLYEDELKIVKFDD
MSRIHTLTMPKWGLSMTEGRVDAWLKEEGAHIEKGDEVLDVETDKISSSVEAPFSGVLRRKVAREDETLAVGALLGVVVEGEASDEEIDALVQRFQAEFVPADEDAGDSGPAPRKVELDGRLLRYFDRGEGDPALLLIHGFGGDLNNWLFNHEALAAERRVIALDLPGHGESGKALVRGDLDELSGSVLALLDHLDLEQVHLAGHSMGGAVALNCARLAPQRVLSLSLIGSAGLGEEINGDYLRGFVEAANRNALKPQLVQLFSDPALVTRQMLEDMLRYKRLEGVDAALRQLLDNLFADGRQRNDLRAVANEGRQPVLAIWGSDDAIIPARHAEGLPAQVEIIPGQAHMVQMEAAEQVNRLLLDFLRQH
MGSDKIHHHHHHMSKENIFDALKSGKIDYVRVEFVDILGNTKGRSLRRAEFENVINDNKGVDYPESLALMDYKDRPIKSRYEDIIAIPDLNTFVAIPYLERTARVLSFLAQPDGLPYPYCSRSILNKAIEKLKEAGYTLQVSFEPTFYLLNSALNPADYSKAFSLEGLLEQQNFLKLLIKYLEEIDIKVETINKHYGPGQYEVKLSQKPVLEAADSLISSREVIRDTAKMNNVIATFMPKPFKDYPSSSMDITLSLQTVDGKDIMYDPNDSKGIGLSKIAYNFISGILEHLPSILSIAAPTVNSYKRFKEVVTPNMPGIGSERHYIVRLPSYYKDTHQVEFRLADPLANPYILLASMIYAGLDGIERNLMANVNEYYGTLPQTLKESLSRLENDTYMKYNLGQDLISIYINIKNIEIEEYESQITEWERDYYLKAGW
MGSDKIHHHHHHMDTDWSNLAVRLERLLERFERIIDRHDPVLPRDPAFFDGAIAFRWRRSGEQGTFEPVTHPHLPDPADLVGIDLVREDLIRNTAQFMDGYPANNVLLWGERGTGKSTCVKGMLRLFADRGLRLVEVQRDDLMSLPALIAALRSVPRRFILFCDDLSFGEGEGGYRELKALLEGSIEAKPTNILFYATSNRRHLLPERMEDNLSSEIHPEEAVSEKLSLADRFGMALGFYPFSQDVYLSIVERYAEKFALPMEREALRKEAHLWAMYRGSRSGRSARQFIDDLAGRLGVRLNDR
LEILRKNRINEPCIKLNTHSIANKIYATENYIIGIPTDHPDEISDAFTKSVAALLAKSNGIRTPELICFDDSYTIKALDKKLHKIGKAEDGACNLILDMLRLLRLAKDLF
MYNDPRSHGLWEKTAPQPPVTPALQGDAVADVVVVGGGFTGQSAALHLAEGGLDVILLEAKEIGFGGAGRNVGLINGGMWVMPKELPDVLGETYGERLLDLLGDAPVLVRELVEKHGIPCEIEKNGTLHCAVGEKGLAEIRERCEQWSARGAPVRVLDADETASYIGSTAYSGALLDSRAGTIQPLAYVRGLAGAALKAGVRLHTASPVNETGRNGAKWVVKTPEGSVTAKWIVVATEAYSTGPWQIIREEQVYLPYFNFATRPLSDNLQKSILPGRQGCWDTKEILSSFRMDKAGRLVFGSVGALRGTGTAIHRAWAKRSLKRLFPQLGDTEFECEWYGQIGMTDNAVPRFHKFAENVIGFSGYNGRGIAPGTAFGKVIAQHILGEIAEADLPLPVTEPKAQAFRAVKEAYYEAGAQIAHFAGERFLEHHHHHH
MGSDKIHHHHHHMGSSGMGVDANGKPIKRQPTTNNNNKKAGNNSNNQKKGNNQNNKNNKNQNGGNRNQNRQHHQPPMMQMVPPFGPMGPGGPGGPGFMGPPNGNMNFFNGQNRRNGSGKDTMDHRLTMWDKELLEIT

Source: the DeepSol protein solubility set
